These results are taken from patent publication US20240209076A1 (KODIAK SCIENCES, published 2024).

Positions count from the first letter of the chain named. In names and notes the source's numbering stands.

B1: anti-IL-6 antibody, parent sequence (heavy chain WT, light chain WT) (antibody, V domains shown)
VH: EVQLVESGGGLVQPGGSLRLSCAASGFTFSPFAMSWVRQAPGKGLEWVAKISPGGSWTYYSDTVTGRFTFSLDTSKSTAYLQMNSLRAEDTAVYYCARQLWGYYALDIWGQGTLVTVSS
VL: DIQLTQSPSSLSASVGDRVTITCSASISVSYMYWYQQKPGKAPKLLIYDMSNLASGVPSRFSGSGSGTDFTLTISSLQPEDFATYYCMQWSGYPYTFGQGTKVEIK
notes: Tested as full antibody from Expi293 cells in an engineered human IgG1 framework (L234A, L235A, G237A, L443C, EU); also called wild-type; parent molecule
B2: anti-IL-6 antibody, heavy chain I51R, light chain WT (antibody, IgG1, V domains shown)
VH: B1 VH with I51R
VL: B1 VL
notes: Full IgG1 tested; V domains derived as in m2
B3: anti-IL-6 antibody, heavy chain W57F, light chain WT (antibody, IgG1, V domains shown)
VH: B1 VH with W57F
VL: B1 VL
notes: as for B2
B4: anti-IL-6 antibody, heavy chain L106F, light chain WT (antibody, IgG1, V domains shown)
VH: B1 VH with L106F
VL: B1 VL
notes: as for B2
B5: anti-IL-6 antibody, heavy chain G26S, light chain WT (antibody, IgG1, V domains shown)
VH: B1 VH with G26S
VL: B1 VL
notes: as for B2
B6: anti-IL-6 antibody, heavy chain I108S, light chain WT (antibody, IgG1, V domains shown)
VH: B1 VH with I108S
VL: B1 VL
notes: as for B2
B7: anti-IL-6 antibody, heavy chain WT, light chain A25T (antibody, IgG1, V domains shown)
VH: B1 VH
VL: B1 VL with A25T
notes: as for B2
B8: anti-IL-6 antibody, heavy chain D107E, light chain WT (antibody, IgG1, V domains shown)
VH: B1 VH with D107E
VL: B1 VL
notes: as for B2
B9: anti-IL-6 antibody, heavy chain D62Q, light chain WT (antibody, IgG1, V domains shown)
VH: B1 VH with D62Q
VL: B1 VL
notes: as for B2
B10: anti-IL-6 antibody, heavy chain G66D, light chain WT (antibody, IgG1, V domains shown)
VH: B1 VH with G66D
VL: B1 VL
notes: Full IgG1 tested
B11: anti-IL-6 antibody, heavy chain G26R, light chain WT (antibody, IgG1, V domains shown)
VH: B1 VH with G26R
VL: B1 VL
notes: as for B2
B12: anti-IL-6 antibody, heavy chain I108F, light chain WT (antibody, IgG1, V domains shown)
VH: B1 VH with I108F
VL: B1 VL
notes: as for B2
B13: anti-IL-6 antibody, heavy chain WT, light chain A25S (antibody, IgG1, V domains shown)
VH: B1 VH
VL: B1 VL with A25S
notes: as for B2
B14: anti-IL-6 antibody, heavy chain G66E, light chain WT (antibody, IgG1, V domains shown)
VH: B1 VH with G66E
VL: B1 VL
notes: as for B2
B15: anti-IL-6 antibody, heavy chain F32G, light chain WT (antibody, IgG1, V domains shown)
VH: B1 VH with F32G
VL: B1 VL
notes: as for B2
B16: anti-IL-6 antibody, heavy chain M34W, light chain WT (antibody, IgG1, V domains shown)
VH: B1 VH with M34W
VL: B1 VL
notes: Full IgG1 tested; VL as in m2
B17: anti-IL-6 antibody, heavy chain I108E, light chain WT (antibody, IgG1, V domains shown)
VH: B1 VH with I108E
VL: B1 VL
notes: as for B2
B18: anti-IL-6 antibody, heavy chain F29Y, light chain WT (antibody, IgG1, V domains shown)
VH: B1 VH with F29Y
VL: B1 VL
notes: as for B2
B19: anti-IL-6 antibody, heavy chain F29H, light chain WT (antibody, IgG1, V domains shown)
VH: B1 VH with F29H
VL: B1 VL
notes: as for B2
B20: anti-IL-6 antibody, heavy chain L100Q, light chain WT (antibody, IgG1, V domains shown)
VH: B1 VH with L100Q
VL: B1 VL
notes: as for B2
B21: anti-IL-6 antibody, light chain Y95I (heavy chain WT) (antibody, V domains shown)
VH: B1 VH
VL: B1 VL with Y95I
notes: See note of m2; also called WT / Y95I
B22: anti-IL-6 antibody, light chain Y95G (heavy chain WT) (antibody, V domains shown)
VH: B1 VH
VL: B1 VL with Y95G
notes: See note of m2; also called WT / Y95G
B23: anti-IL-6 antibody, light chain Y48W (heavy chain WT) (antibody, V domains shown)
VH: B1 VH
VL: B1 VL with Y48W
notes: See note of m2; also called WT / Y48W

One assay deals with T1, recombinant human IL-6 (human, UniProt P05231 30-212).
T1 construct: Flowed in solution over the captured antibodies
The experiment in a line: SPR (Biacore), purified IgG on Protein A, 37 C. As to the method:
(§1) Antibodies were captured on a Protein A chip (GE) by injecting 1:20 dilution of cell supernatant at 10 μL/min for 60 seconds. […] The sensor chip was regenerated by a 60 seconds injection of 10 mM Glycine pH 1.7 at flow rate of 50 μL/min. […] For this setup, 1 μg/mL of purified antibody was injected over a Protein A chip at 10 μL/min for 25-28 seconds. Data analysis for supernatant and purified samples were performed using BIAevaluation software (GE). All sensorgrams were double reference subtracted and fit using a 1:1 Langmuir binding model.
A general note: Surface plasmon resonance follows binding to a sensor surface in real time, without labels.
T1 sequence (P05231 30-212 limits assumed): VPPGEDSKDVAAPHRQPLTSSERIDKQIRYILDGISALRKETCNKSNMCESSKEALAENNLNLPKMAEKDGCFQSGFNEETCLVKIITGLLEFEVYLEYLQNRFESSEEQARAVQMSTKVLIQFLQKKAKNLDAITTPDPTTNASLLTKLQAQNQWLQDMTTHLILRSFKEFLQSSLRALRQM
For B1, the Kd was 0.158 nM, the koff was 0.000139 s⁻¹ and the kon was found to be 880000 M⁻¹ s⁻¹.
The corresponding values for B2 are 0.505 nM, 0.000343 s⁻¹ and 679000 M⁻¹ s⁻¹.
With B3, the Kd stood at 0.524 nM, the koff is 0.000453 s⁻¹ and the kon came to 864000 M⁻¹ s⁻¹.
The corresponding values for B4 are 0.634 nM, 0.000541 s⁻¹ and 852000 M⁻¹ s⁻¹.
The corresponding values for B5 are 0.463 nM, 0.00039 s⁻¹ and 842000 M⁻¹ s⁻¹.
The corresponding values for B6 are 0.391 nM, 0.000336 s⁻¹ and 858000 M⁻¹ s⁻¹.
Turning to B7, the Kd turned out to be 0.425 nM, the koff is 0.000378 s⁻¹ and the on-rate (kon) is 889000 M⁻¹ s⁻¹.
The corresponding values for B8 are 0.527 nM, 0.000402 s⁻¹ and 762000 M⁻¹ s⁻¹.
The corresponding values for B9 are 0.687 nM, 0.000601 s⁻¹ and 875000 M⁻¹ s⁻¹.
On to B10, for which the Kd is 0.0695 nM, the dissociation rate constant (koff) came to 0.000136 s⁻¹ and the kon is 1.96e+06 M⁻¹ s⁻¹.
The corresponding values for B11 are 0.465 nM, 0.000326 s⁻¹ and 702000 M⁻¹ s⁻¹.
Taken in the same sequence, the figures for B12 were 0.587 nM, 0.000401 s⁻¹ and 683000 M⁻¹ s⁻¹.
Taken in the same sequence, the figures for B13 were 0.438 nM, 0.000342 s⁻¹ and 782000 M⁻¹ s⁻¹.
Turning to B14, the Kd was 0.0895 nM, the koff worked out at 0.000171 s⁻¹ and the association rate constant (kon) came out at 1.91e+06 M⁻¹ s⁻¹.
B15: the Kd is 0.569 nM, the koff is 0.00037 s⁻¹ and the association rate constant (kon) is 650000 M⁻¹ s⁻¹.
For the molecule B16, the Kd is 0.394 nM, the koff was determined as 0.000236 s⁻¹ and the on-rate constant (kon) is 599000 M⁻¹ s⁻¹.
The corresponding values for B17 are 0.404 nM, 0.000372 s⁻¹ and 921000 M⁻¹ s⁻¹.
Turning to B18, the Kd was found to be 0.444 nM, the koff was 0.000374 s⁻¹ and the kon was 842000 M⁻¹ s⁻¹.
Taken in the same sequence, the figures for B19 were 0.466 nM, 0.000397 s⁻¹ and 850000 M⁻¹ s⁻¹.
Taken in the same sequence, the figures for B20 were 0.499 nM, 0.00041 s⁻¹ and 823000 M⁻¹ s⁻¹.

The target in another assay is T1, recombinant human IL-6. The experiment in a line: SPR (Biacore), supernatant IgG on Protein A, 25 C. The protocol:
as §1
Consider B1, for which the Kd stood at 0.399 nM, the koff was 0.000126 s⁻¹ and the kon was found to be 315000 M⁻¹ s⁻¹.
The corresponding values for B2 are 0.165 nM, 7.6e-05 s⁻¹ and 462000 M⁻¹ s⁻¹.
Taken in the same sequence, the figures for B3 were 0.222 nM, 0.000128 s⁻¹ and 577000 M⁻¹ s⁻¹.
For B4, the Kd is 0.314 nM, the koff stood at 0.000185 s⁻¹ and the kon amounted to 591000 M⁻¹ s⁻¹.
On to B5, for which the dissociation constant Kd turned out to be 0.209 nM, the koff worked out at 0.000115 s⁻¹ and the kon was determined as 551000 M⁻¹ s⁻¹.
On to B6, for which the Kd was 0.256 nM, the koff stood at 0.000141 s⁻¹ and the kon amounted to 554000 M⁻¹ s⁻¹.
In the case of B7, the Kd was 0.235 nM, the koff was determined as 0.000119 s⁻¹ and the kon was found to be 508000 M⁻¹ s⁻¹.
Taken in the same sequence, the figures for B8 were 0.29 nM, 0.000147 s⁻¹ and 509000 M⁻¹ s⁻¹.
As to B9, the Kd turned out to be 0.366 nM, the koff came out at 0.000148 s⁻¹ and the kon stood at 403000 M⁻¹ s⁻¹.
As for B10, the Kd worked out at 0.0902 nM, the koff was 0.000117 s⁻¹ and the kon was 1.3e+06 M⁻¹ s⁻¹.
Regarding B11, the dissociation constant (Kd) was found to be 0.302 nM, the koff came out at 0.000121 s⁻¹ and the kon was found to be 402000 M⁻¹ s⁻¹.
The corresponding values for B12 are 0.399 nM, 0.000146 s⁻¹ and 365000 M⁻¹ s⁻¹.
As for B13, the Kd was determined as 0.197 nM, the koff was 0.000105 s⁻¹ and the kon was 535000 M⁻¹ s⁻¹.
The corresponding values for B14 are 0.107 nM, 0.00011 s⁻¹ and 1.02e+06 M⁻¹ s⁻¹.
The corresponding values for B15 are 0.318 nM, 0.000133 s⁻¹ and 418000 M⁻¹ s⁻¹.
Taken in the same sequence, the figures for B16 were 0.39 nM, 0.000115 s⁻¹ and 296000 M⁻¹ s⁻¹.
As for B17, the Kd came to 0.305 nM, the koff was 0.000174 s⁻¹ and the kon is 571000 M⁻¹ s⁻¹.
Regarding B18, the dissociation constant Kd stood at 0.266 nM, the koff was determined as 0.000133 s⁻¹ and the kon came to 499000 M⁻¹ s⁻¹.
Take B19: the Kd came to 0.273 nM, the koff stood at 0.000135 s⁻¹ and the kon was found to be 495000 M⁻¹ s⁻¹.
B20: the Kd amounted to 0.384 nM, the koff was determined as 0.000153 s⁻¹ and the kon amounted to 398000 M⁻¹ s⁻¹.

The next assay concerns the target T2, recombinant human IL-6 (human, UniProt P05231 30-212).
T2 construct: Bought protein
The experiment in a line: SPR Biacore, supernatant Ab on Protein A chip, IL-6 analyte, 25 C. The protocol: as §1
T2 sequence (P05231 30-212 limits assumed): as above
For B21, the Kd was determined as 7.48 nM, the koff worked out at 0.00444 s⁻¹ and the kon was 593000 M⁻¹ s⁻¹.
Regarding B22, the Kd was determined as 0.383 nM, the koff is 0.000338 s⁻¹ and the kon worked out at 882000 M⁻¹ s⁻¹.
With B23, the Kd worked out at 0.356 nM, the koff was 0.000123 s⁻¹ and the kon was found to be 345000 M⁻¹ s⁻¹.

The term Kd denotes the free concentration of one partner at which half of the binding sites on the other are occupied at equilibrium, for simple one-to-one binding. The term koff denotes the rate constant with which the complex falls apart. Usually kon stands for the rate constant with which the complex forms.
